Source: the supplement of paper PMC11136658

Tested on: peptide library, one residue held at a place counted from the Y acceptor
Assay: relative phosphorylation of the sub-library (ratio to the mean residue at this position); higher = residue favoured
Method in brief: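 Every value reflects phosphorylation relative to the mean randomized residue. The sum of the 18 randomized residues, or 16 in the Ser/Thr-free library, served to normalize intensities at each position, which were then multiplied by that number. Intensities came from phosphorimaging with ImageQuant of biotinylated Tyr-centred peptides captured on streptavidin membranes after 90 min with purified recombinant kinases and 50 μM ATP plus γ-32P-ATP.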

Sequence of KIT, construct: aa544-end, human (P10721 544-976, looked up): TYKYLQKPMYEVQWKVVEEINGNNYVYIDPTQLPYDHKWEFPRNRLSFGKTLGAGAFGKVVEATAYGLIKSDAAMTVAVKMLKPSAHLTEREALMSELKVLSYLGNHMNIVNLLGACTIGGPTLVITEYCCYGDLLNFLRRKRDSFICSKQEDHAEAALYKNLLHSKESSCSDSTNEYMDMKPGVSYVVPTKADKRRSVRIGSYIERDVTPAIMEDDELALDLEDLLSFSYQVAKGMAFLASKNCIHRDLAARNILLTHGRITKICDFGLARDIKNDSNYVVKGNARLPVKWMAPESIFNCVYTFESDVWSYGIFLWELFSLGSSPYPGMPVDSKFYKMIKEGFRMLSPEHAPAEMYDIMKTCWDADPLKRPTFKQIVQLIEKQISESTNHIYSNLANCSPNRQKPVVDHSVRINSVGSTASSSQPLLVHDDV

KIT, construct: aa544-end, human (from UniProt P10721)
relative phosphorylation
Conditions | at +1 | at +2 | at +3 | at +4 | at +5 | at -1 | at -2 | at -3 | at -4 | at -5
A fixed | 0.767 | 0.817 | 0.577 | 0.912 | 1.01 | 0.799 | 1.12 | 1.03 | 1.1 | 1.01
D fixed | 0.38 | 0.893 | 0.392 | 0.969 | 0.604 | 1.62 | 1.26 | 1.51 | 1.33 | 1.22
E fixed | 0.666 | 1.19 | 0.276 | 0.92 | 0.618 | 1.36 | 1.45 | 1.76 | 1.51 | 1.04
F fixed | 1.99 | 1.1 | 2.08 | 1.13 | 1.9 | 1.06 | 0.614 | 0.837 | 0.973 | 0.976
G fixed | 0.387 | 0.485 | 0.529 | 1.03 | 1.16 | 0.521 | 1.19 | 1.1 | 1.17 | 1.22
H fixed | 1.82 | 0.971 | 0.859 | 1.14 | 0.933 | 1.39 | 0.967 | 0.973 | 0.913 | 1.04
I fixed | 1.78 | 0.95 | 2.43 | 0.817 | 0.793 | 1.86 | 0.881 | 0.703 | 0.892 | 0.869
K fixed | 0.694 | 0.803 | 0.588 | 1.05 | 0.596 | 0.494 | 0.669 | 0.754 | 0.806 | 1.03
L fixed | 1.18 | 1.15 | 1.76 | 0.826 | 0.911 | 1.06 | 0.867 | 0.707 | 0.801 | 0.849
M fixed | 1.17 | 1.02 | 1.42 | 0.903 | 0.949 | 0.834 | 0.763 | 0.764 | 0.865 | 0.848
N fixed | 0.554 | 1.05 | 0.581 | 0.952 | 0.811 | 1.13 | 1.15 | 1.18 | 0.92 | 1.07
P fixed | 0.495 | 0.925 | 1.1 | 0.96 | 1.48 | 0.883 | 1.26 | 1.07 | 1.12 | 1.13
Q fixed | 1.12 | 1.05 | 0.591 | 1.09 | 0.773 | 0.87 | 1.15 | 1.01 | 1.05 | 0.891
R fixed | 0.761 | 1.04 | 0.871 | 1.26 | 0.822 | 0.487 | 0.857 | 0.774 | 0.929 | 0.958
S fixed | 0.649 | 0.88 | 0.53 | 0.99 | 0.904 | 0.644 | 1.14 | 1.09 | 0.934 | 0.983
T fixed | 0.834 | 0.943 | 0.706 | 0.87 | 0.953 | 0.952 | 1.08 | 1.03 | 0.834 | 0.985
V fixed | 1.65 | 1.02 | 1.65 | 0.868 | 0.776 | 1.37 | 0.909 | 0.756 | 0.775 | 0.797
W fixed | 1.11 | 1.71 | 1.07 | 1.32 | 2.01 | 0.667 | 0.676 | 0.95 | 1.09 | 1.1
pThr fixed | 0.919 | 1.81 | 0.344 | 0.573 | 0.504 | 1.43 | 1.17 | 1.69 | 1.35 | 1.26
pTyr fixed | 2.18 | 2 | 0.413 | 1.16 | 0.73 | 4.18 | 1.59 | 1.89 | 1.48 | 1.4
